Assay results published in article PMC9892613, “Thermodynamic analysis of an entropically driven, high-affinity nanobody-HIV p24 interaction” (Biophysical Journal, 2022).

Target: T1, HIV-1 capsid protein p24 (His-p24) (HIV-1 group M subtype B, NY5/NL4-3 …, UniProt P12493)
T1 construct: capsid protein p24 of HIV-1, the cut product of the Gag polyprotein; amplified from the template pWISP98-85 (NIH ARP); also called HIV-1 p24; p24 antigen; source: E. coli BL21-Star(DE3)pLysS, pET3a-His-p24, purified in-house; not shown: His6-Cys, N-terminal, kept
Test: BLI; in the same nanobody storage buffer (Fig. S5)
Details: both partners purified

B1: nanobody 48G11 (59H10 F93D) (VHH)
VHH: DVQLQESGGGLVQAGGSLRLSCAASGSISRFNAMGWWRQAPGKEREFVARIVKGFDPVLADSVKGRFTISIDSAENTLALQMNRLKPEDTAVYYCDAALDTAYWGQGTQVTVSS
notes: as the chain of m2 (59H10, PDB 5O2U chain B) with F93D; made by site-directed mutagenesis; Artificial variant of 59H10 with one changed residue; also called 48G11 (F93D)
- binding result: no binding
